We go through two molecules from article PMC3708727 (Molecular Biology of the Cell, 2013).

Experiment [1] has as its target rabbit muscle actin filaments (rabbit, UniProt P68135 1-377). The experiment in a line: co-sedimentation.
The target in experiment [2] is T1, histidine (His)-tagged full-length dAbp1 (Dictyostelium discoideum, UniProt Q557J6 1-481).
T1 sequence (looked up): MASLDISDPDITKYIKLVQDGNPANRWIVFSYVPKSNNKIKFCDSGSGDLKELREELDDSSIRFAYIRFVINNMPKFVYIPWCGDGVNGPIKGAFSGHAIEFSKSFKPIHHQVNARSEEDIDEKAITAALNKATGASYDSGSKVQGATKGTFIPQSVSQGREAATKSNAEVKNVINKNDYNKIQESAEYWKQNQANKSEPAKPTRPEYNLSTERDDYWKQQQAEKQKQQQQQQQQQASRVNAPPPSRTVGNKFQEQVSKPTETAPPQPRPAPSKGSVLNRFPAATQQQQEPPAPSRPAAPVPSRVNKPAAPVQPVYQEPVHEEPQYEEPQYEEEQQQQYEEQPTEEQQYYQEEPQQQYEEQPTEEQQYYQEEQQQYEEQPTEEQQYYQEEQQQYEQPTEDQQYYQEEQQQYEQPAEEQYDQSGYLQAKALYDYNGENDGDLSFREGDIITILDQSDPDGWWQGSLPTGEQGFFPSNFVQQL
The experiment can be described thus: pull-down.

In experiment [3] the target is T2, His-tagged dAbp1-237-313 fragment (Dictyostelium discoideum, UniProt Q557J6 237-313).
T2 sequence (looked up): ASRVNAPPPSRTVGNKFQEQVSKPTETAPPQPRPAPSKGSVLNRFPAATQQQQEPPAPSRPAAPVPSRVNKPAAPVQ
The experiment in a line: pull-down.

B1: GST-dAbp1 (natural protein)
chain: T1 sequence (looked up)
Regarding B1, in experiment [1], the “Kd in the presence of an equimolar amount of GST-PakB-1-120” value was determined as 1100 ± 400 nM.

B2: GST-dAbp1-SH3 domain fusion protein (domain or fragment, Dictyostelium discoideum, UniProt Q557J6 426-481, looked up)
chain: QAKALYDYNGENDGDLSFREGDIITILDQSDPDGWWQGSLPTGEQGFFPSNFVQQL
For the molecule B2, the binding result in experiment [2] and in experiment [3] was “binds” throughout.
